A word on the Km: it is the substrate concentration at which the rate is half of its maximum.

Results on two molecules are retold here after paper PMC4446434, “A prophage-encoded actin-like protein required for efficient viral DNA replication in bacteria” (Nucleic Acids Research, 2015).

Data set [1] concerns the target His10-AlpC (Cg1890), actin-like protein of the prophage CGP3 of Corynebacterium glutamicum ATCC 13032 (Corynebacterium glutamicum ATCC 13032 (prophage CGP3)). In words: co-sedimentation; AlpC and AlpA (or control protein) equimolar, 5 uM each, 20 ul, EMSA buffer (20 mM Tris/HCl pH 7.5, 50 mM KCl, 10 mM MgCl2, 5% glycerol, 0.5 mM EDTA, 0.005% Triton X-100), 30°C 30 min, with or without 1 mM ATP and/or 100 ng DNA (500 bp upstream of alpA); 16 100 x g 1 h; SDS-PAGE, Coomassie, ImageQuant TL.

Substrate in data set [2]: Nc1ncnc2c1ncn2[C@@H]1O[C@H](COP(=O)(O)OP(=O)(O)OP(=O)(O)O)[C@@H](O)[C@H]1O
Briefly: purified protein. To be noted: 1 uM protein, equimolar MgSO4, 50 mM Tris/HCl pH 7.5, 150 mM NaCl, 10% glycerol, 30 °C. The format is biochemical, Corynebacterium glutamicum.

Substrate in data set [3]: Nc1nc2c(ncn2[C@@H]2O[C@H](COP(=O)(O)OP(=O)(O)OP(=O)(O)O)[C@@H](O)[C@H]2O)c(=O)[nH]1
In words: purified protein. The format is biochemical, Corynebacterium glutamicum. To be noted: 1 uM protein, equimolar MgSO4, 50 mM Tris/HCl pH 7.5, 150 mM NaCl, 10% glycerol, 30 °C.

In data set [1], “His10-AlpA (Cg1891), adaptor protein of the prophage CGP3 of Corynebacterium glutamicum (natural protein)” showed a percent of AlpA co-sedimented with AlpC (with ATP and DNA) of 38%; a percent of AlpA co-sedimented with AlpC (with ATP) of 30%.

B1: AlpC (Corynebacterium glutamicum ATCC 13032) (protein)
chain: MTSAVNVQKKTTQKVLKPINTKNYSATDAVQTGQHGSALGSNIGVYTYTAGLDIGNGYVKGIIEATGDTTGTSVDVIDMPSAATRMSRPTEVPEPDDTAVAVTGADFFNHIDTNFNSPMVKGNYRYLCGTRSLSARGSLEEFDLVGNRSKAEQELSKVLVMAVLAAKAVKDFVAAHGRIPQVAVEGDPGVLRVHTYLALALPINEYVGHRHGYKAQFMGDGAANPAVHVVTVNNFETPATVQLIFERVEVIAEGASAQYAITAGGEVLMNGMLADVRSKGLALEGVTAGDVLQARHTIGVDVGEGTVNFPVFTDGRFNHDASRAYDKGYGTVLESAIQAMDDAGLAHNFNSRKQLADYLQRPPSALKRNFYTRVEQHVDQEAVFFVQDVAAEFARVLSDVGALTEVAFVYGGGSGPLRDRLHEALLIKAAEMGSEDTFPVLYLDSAYSRKLNREGLMIAARSIAAKARK
notes: N-terminal His10 tag kept (His10-AlpC), expressed in E. coli BL21 (DE3) pLysS, HisTrap and Superdex 200 purified; encoded by cryptic prophage CGP3; polymerizes with nucleotide and Mg2+
With B1, the Km in the data set “purified protein [2]” worked out at 200 µM; in “purified protein [3]” it was 430 µM.
